Source: paper PMC6994035

Key:
Assay in all cases: EMSA
[1] = target: MBD-YFP (MBD of Mecp2) (UniProt Q9Z2D6 77-167)
[2] = target: mcherry-Tet1CD (UniProt Q3URK3 1367-2039)
[3] = target: Mbd4-Strep (UniProt Q9Z2D7 1-554)

Measured: binding result

MBD-YFP (MBD of Mecp2), sequence (Q9Z2D6 77-167): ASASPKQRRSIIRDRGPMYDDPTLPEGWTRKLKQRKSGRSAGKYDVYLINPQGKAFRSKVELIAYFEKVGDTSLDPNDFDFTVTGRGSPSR
Mbd4-Strep, sequence (Q9Z2D7 whole entry): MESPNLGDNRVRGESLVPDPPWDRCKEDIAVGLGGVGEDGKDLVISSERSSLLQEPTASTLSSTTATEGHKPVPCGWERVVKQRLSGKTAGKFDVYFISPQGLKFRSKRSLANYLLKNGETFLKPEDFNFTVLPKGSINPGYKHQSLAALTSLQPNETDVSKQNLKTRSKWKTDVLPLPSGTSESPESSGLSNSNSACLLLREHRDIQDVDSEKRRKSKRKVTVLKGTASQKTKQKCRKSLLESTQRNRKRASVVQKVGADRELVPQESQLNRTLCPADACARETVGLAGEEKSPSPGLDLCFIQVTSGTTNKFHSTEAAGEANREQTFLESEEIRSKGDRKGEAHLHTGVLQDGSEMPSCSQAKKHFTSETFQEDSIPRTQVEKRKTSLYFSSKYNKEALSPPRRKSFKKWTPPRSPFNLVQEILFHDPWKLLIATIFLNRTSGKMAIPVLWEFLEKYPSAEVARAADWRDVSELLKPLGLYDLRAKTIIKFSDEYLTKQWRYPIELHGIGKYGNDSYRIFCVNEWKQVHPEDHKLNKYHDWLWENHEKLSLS
mcherry-Tet1CD, sequence (Q3URK3 1367-2039): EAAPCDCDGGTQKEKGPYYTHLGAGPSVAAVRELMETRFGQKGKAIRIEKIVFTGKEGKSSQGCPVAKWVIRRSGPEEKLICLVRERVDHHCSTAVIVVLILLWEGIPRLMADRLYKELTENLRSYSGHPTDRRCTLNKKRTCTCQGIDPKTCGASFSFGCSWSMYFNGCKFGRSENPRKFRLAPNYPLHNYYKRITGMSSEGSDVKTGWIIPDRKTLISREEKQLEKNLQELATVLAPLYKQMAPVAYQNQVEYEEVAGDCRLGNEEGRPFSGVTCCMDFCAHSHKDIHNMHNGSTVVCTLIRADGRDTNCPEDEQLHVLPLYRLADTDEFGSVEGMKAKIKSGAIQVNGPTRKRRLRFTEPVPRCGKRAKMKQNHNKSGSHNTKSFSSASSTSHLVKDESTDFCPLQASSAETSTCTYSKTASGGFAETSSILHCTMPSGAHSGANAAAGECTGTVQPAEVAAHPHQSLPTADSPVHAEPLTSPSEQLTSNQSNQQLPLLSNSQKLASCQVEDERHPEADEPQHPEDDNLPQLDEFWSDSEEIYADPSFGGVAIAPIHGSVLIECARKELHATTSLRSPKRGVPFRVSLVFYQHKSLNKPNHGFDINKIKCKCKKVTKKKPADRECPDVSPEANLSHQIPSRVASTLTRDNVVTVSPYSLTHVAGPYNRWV

B1: mC:mC fully methylated CpG 42-mer (dsDNA)
DNA 1: CTCAACAACTAACTACCATCCGGACCAGAAGAGTCATCATGG
DNA 2: CCATGATGACTCTTCTGGTCCGGATGGTAGTTAGTTGTTGAG
modifications: 5mC at position 21 of both strands
binds: [1] | [2] | [3]
